For this assay, the target named is platelet membrane actin (human (endogenous in platelets)) (UniProt P60709). Kind of assay: SEC. On the technique in general: In gel filtration, larger molecules generally elute earlier.

A value given as a limit tells only on which side of the number the result lay.

In the case of “glycoprotein IIb, form in the Triton X-100-insoluble fraction of platelet plasma membranes (natural protein)”, the percent of surface GPIIb and III associated with the actin-rich void volume peak was more than 85%.

For the origin of these results see PMC2113458.
